Patent US20240358847A1 (Merck Sharp & Dohme, published 2024)
Numbering of substitutions follows the chain as printed. In names and notes the source's numbering stands.

B1: αTROP2 (HC: Sac-S375C) (LC: Sac-Y53D) (antibody, human IgG1, kappa)
heavy: not shown
light: DIQLTQSPSSLSASVGDRVSITCKASQDVSIAVAWYQQKPGKAPKLLIYSASDRYTGVPDRFSGSGSGTDFTLTISSLQPEDFAVYYCQQHYITPLTFGAGTKVEIKRTVAAPSVFIFPPSDEQLKSGTASVVCLLNNFYPREAKVQWKVDNALQSGNSQESVTEQDSKDSTYSLSSTLTLSKADYEKHKVYACEVTHQGLSSPVTKSFNRGEC
B2: αTROP2 Fab (Fab, V domains shown)
VH: QVQLQQSGSELKKPGASVKVSCKASGYTFTNYGMNWVKQAPGQGLKWMGWINTYTGEPTYTDDFKGRFAFSLDTSVSTAYLQISSLKADDTAVYFCARGGFGSSYWYFDVWGQGSLVTVSS
VL: DIQLTQSPSSLSASVGDRVSITCKASQDVSIAVAWYQQKPGKAPKLLIYSASYRYTGVPDRFSGSGSGTDFTLTISSLQPEDFAVYYCQQHYITPLTFGAGTKVEIK
notes: CH1 and kappa constant parts not specified
B3: mAb_Lm_S50L_HC (antibody, human IgG1, kappa)
heavy: not shown
light: B1 light with S50L, D53Y
B4: mAb_Lm_Y53S_HC (antibody, human IgG1, kappa)
heavy: not shown
light: B1 light with D53S
B5: mAb_Lm_Y53N_HC (antibody, human IgG1, kappa)
heavy: not shown
light: B1 light with D53N
B6: mAb_Lm_Y92E_HC (antibody, human IgG1, kappa)
heavy: not shown
light: B1 light with D53Y, Y92E
B7: mAb_Lm_S50T_HC (antibody, human IgG1, kappa)
heavy: not shown
light: B1 light with S50T, D53Y
B8: mAb_Lm_Y53V_HC (antibody, human IgG1, kappa)
heavy: not shown
light: B1 light with D53V
B9: mAb_Lm_T94F_HC (antibody, human IgG1, kappa)
heavy: not shown
light: B1 light with D53Y, T94F
B10: αTROP2 (HC:Sac) (LC:Sac-Y53D) (antibody, human IgG1, kappa)
heavy: not shown
light: B1 light
B11: mAb_Lm_Y92A_HC (antibody, human IgG1, kappa)
heavy: not shown
light: B1 light with D53Y, Y92A
B12: αTROP2 (HC:BSM-YTE-S375C) (LC:BSM-Y53D) conjugated to MP-AA-PABC-MMAE (ADC 1) (antibody, human IgG1, kappa, V domains shown)
VH: B2 VH with Q5L, K38R, A69S, T78Q, D89E, F95Y, S115T
VL: DIQLTQSPSSLSASVGDRVTITCKASQDVSIAVAWYQQKPGKAPKLLIYSASDRYTGVPSRFSGSGSGTDFTLTISSLQPEDFATYYCQQHYITPLTFGPGTKVEIKR
modifications: Cys at position 375 (Eu numbering) conjugated to MP-AA-PABC-MMAE; DAR 1.9
notes: Antibody-drug conjugate; also called αTROP2 (HC:BSM-YTE-S375C-MMAE) (LC:BSM-Y53D)

Target: T1, Human Trop2 (human, UniProt P09758 27-274, limits assumed)
T1 construct: also called TROP2 protein; trophoblast cell-surface antigen 2
T1 sequence (looked up): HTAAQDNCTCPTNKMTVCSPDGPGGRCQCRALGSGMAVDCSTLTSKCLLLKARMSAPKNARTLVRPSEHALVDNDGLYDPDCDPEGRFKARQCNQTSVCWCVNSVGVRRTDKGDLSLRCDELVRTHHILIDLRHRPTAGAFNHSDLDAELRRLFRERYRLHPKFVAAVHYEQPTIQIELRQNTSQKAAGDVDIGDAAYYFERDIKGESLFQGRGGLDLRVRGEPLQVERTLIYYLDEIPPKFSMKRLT
Experiment: SPR, TROP2 capture, pH 7.4, bivalent mode; KDapp

Binder B1 has a Kd of 6.9 nM.

Target: T1, Human Trop2
Experiment: SPR, TROP2 capture, pH 7.4, monovalent mode; KDapp

Work on B2 yielded a Kd of 1.1 nM.

Target: T2, TROP2 on BxPC-3 and MDA-MB-231-KWL cells (human, UniProt P09758 27-323)
T2 construct: whole, on cells
T2 sequence (looked up): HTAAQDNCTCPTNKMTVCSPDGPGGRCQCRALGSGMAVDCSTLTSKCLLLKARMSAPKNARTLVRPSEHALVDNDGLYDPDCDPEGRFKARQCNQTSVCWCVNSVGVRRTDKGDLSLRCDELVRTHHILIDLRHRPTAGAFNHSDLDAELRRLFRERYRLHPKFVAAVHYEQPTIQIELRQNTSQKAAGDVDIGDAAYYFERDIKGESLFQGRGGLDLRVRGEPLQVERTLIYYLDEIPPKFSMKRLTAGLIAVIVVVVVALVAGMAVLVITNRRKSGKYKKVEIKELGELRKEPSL
Experiment: on-cell ELISA, BxPC-3 vs MDA-MB-231-KWL cells
Protocol: (§1) Cells were plated in duplicate onto 96-well plates, and primary antibody was diluted in cell culture medium with a starting concentration of 30 μg/mL (200 nM) with a dilution factor of 1:5. […] Data was plotted and analyzed. EC50 ([…]) was measured along with area under the curve (AUC) for each cell line.

Point of comparison: B5, ΔAUC 169. Against it:
- B3 — lower, 129
- B4 — lower, 102
- B6 — lower, 148
- B7 — lower, 148
- B8 — lower, 105
- B9 — lower, 77.4
- B10 — higher, 193
- B11 — lower, 147

Target: T2, TROP2 on BxPC-3 and MDA-MB-231-KWL cells
Experiment: on-cell ELISA, BxPC-3 cells (TROP2 high)
Parameters: unit not given beside the values
Protocol: as §1

Point of comparison: B4, “AUC (BxPC-3)” value 307. Against it:
- B3 — lower, 133
- B5 — higher, 309
- B6 — lower, 165
- B7 — lower, 305
- B8 — higher, 317
- B9 — higher, 318
- B10 — lower, 288
- B11 — lower, 160

Target: T1, Human Trop2
Experiment: SPR, binding to target

B12: binds.

Target: T2, TROP2 on BxPC-3 and MDA-MB-231-KWL cells
Experiment: on-cell ELISA, MDA-MB-231-KWL cells (TROP2 low)
Parameters: unit not given beside the values
Protocol: as §1

Point of comparison: B7, “AUC (MDA-MB-231-KWL)” value 157. Against it:
- B3 — lower, 4.22
- B4 — higher, 205
- B5 — lower, 140
- B6 — lower, 16.1
- B8 — higher, 213
- B9 — higher, 240
- B10 — lower, 95.1
- B11 — lower, 13.1
